# Data from US20040253677.
# System: HA-GβL
substance,measurement,value
myc-mTOR (full-length),in vitro mTOR kinase activity (autophosphorylation and activity towards GST-S6K1),GβL-mediated stimulation of the mTOR kinase activity correlates with the amount of GβL bound to mTOR and is independent of raptor
